Data from paper PMC2982890 (Biochemistry, 2010).

B1: nuclear coactivator binding domain (NCBD) of CBP (residues 2059–2117) (domain or fragment, mouse, UniProt P45481 2059-2117, looked up)
chain: PPRSISPSALQDLLRTLKSPSSPQQQQQVLNILKSNPQLMAAFIKQRTAKYVANQPGMQ

How the values were obtained:
[1] = target: B1; assay: ITC
[2] = target: B1; assay: ITC + NMR titration
[3] = target: p53(1–61), full-length transactivation domain (TAD) of human p53 (human, UniProt P04637 1-61); assay: ITC + NMR titration

Binder	Kd [1] [µM]	dH [1] [kcal/mol]	fold weaker binding than p53(1–61) [2] [fold]	binding result [3]
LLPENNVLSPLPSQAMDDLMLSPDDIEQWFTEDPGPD (domain or fragment, human, UniProt P04637 25-61, looked up) [p53(25–61)]	5.4 ± 1.8	-4.12 ± 0.46	2 to 3	–
LSQETFSDLWKLLPE (peptide, UniProt P04637 14-28, looked up) [p53(14–28), isolated AD1 peptide]	–	–	~170	–
B1	–	–	–	binds
